The text below walks through data of patent US20240122983A1 (SHATTUCK LABS, published 2024).

Where two headings read alike, the source gives them in different places.

Usually EC50 (read off the curve) stands for the concentration that produces a half-maximal response. In general, Kd refers to the concentration at which binding is half-saturated. A low value points to a tighter complex. Usually koff stands for a measure of how fast the partners let go of each other. A low value points to slow dissociation. Broadly, the kon is a measure of how fast the partners come together. A lower kon goes with slow association.

The labels stand for the following.
T1: recombinant mouse mOX40 protein (mouse, UniProt P47741 20-211, limits assumed)
T1 sequence (looked up): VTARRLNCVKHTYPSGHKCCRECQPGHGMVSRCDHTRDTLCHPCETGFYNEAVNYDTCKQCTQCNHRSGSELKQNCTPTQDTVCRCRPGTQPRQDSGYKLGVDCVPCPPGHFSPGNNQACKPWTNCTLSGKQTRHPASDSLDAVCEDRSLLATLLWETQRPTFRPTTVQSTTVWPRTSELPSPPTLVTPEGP

B1: Standard(mCD40L) (ligand, mouse, UniProt P27548 112-260, looked up)
ligand chain: MQRGDEDPQIAAHVVSEANSNAASVLQWAKKGYYTMKSNLVMLENGKQLTVKREGLYYVYTQVTFCSNREPSSQRPFIVGLWLKPSSGSERILLKAANTHSSSQLCEQQSVHLGGVFELQAGASVFVNVTEASQVIHRVGFSSFGLLKL
notes: recombinant soluble protein; also called recombinant mCD40L protein
B2: mFLT3L-Fc-CD40L chimeric protein (Fc fusion, murine;mouse (printed as mFc), UniProt P49772 27-189, looked up)
chain: GTPDCYFSHSPISSNFKVKFRELTDHLLKDYPVTVAVNLQDEKHCKALWSLFLAQRWIEQLKTVAGSKMQTLLEDVNTEIHFVTSCTFQPLPECLRFVQTNISHLLKDTCTQLLALKPCIGKACQNFSRCLEVQCQPDSSTLLPPRSPIALEATELPEPRPRQVPRDCGCKPCICTVPEVSSVFIFPPKPKDVLTITLTPKVTCVVVDISKDDPEVQFSWFVDDVEVHTAQTQPREEQFNSTFRSVSELPIMHQDWLNGKEFKCRVNSAAFPAPIEKTISKTKGRPKAPQVYTIPPPKEQMAKDKVSLTCMITDFFPEDITVEWQWNGQPAENYKNTQPIMNTNGSYFVYSKLNVQKSNWEAGNTFTCSVLHEGLHNHHTEKSLSHSPGKHRRLDKVEEEVNLHEDFVFIKKLKRCNKGEGSLSLLNCEEMRRQFEDLVKDITLNKEEKKENSFEMQRGDEDPQIAAHVVSEANSNAASVLQWAKKGYYTMKSNLVMLENGKQLTVKREGLYYVYTQVTFCSNREPSSQRPFIVGLWLKPSSGSERILLKAANTHSSSQLCEQQSVHLGGVFELQAGASVFVNVTEASQVIHRVGFSSFGLLKL
notes: extracellular domain;domain: hinge-CH2-CH3 Fc domain; Expressed in 293 cells, purified on protein A; multimer when not reduced; also called murine FLT3L-Fc-CD40L; mFLT3-Fc-CD40L
B3: mFLT3L-Fc-OX40L chimeric protein (Fc fusion, murine;mouse (printed as mFc), UniProt P49772 27-189, looked up)
chain: GTPDCYFSHSPISSNFKVKFRELTDHLLKDYPVTVAVNLQDEKHCKALWSLFLAQRWIEQLKTVAGSKMQTLLEDVNTEIHFVTSCTFQPLPECLRFVQTNISHLLKDTCTQLLALKPCIGKACQNFSRCLEVQCQPDSSTLLPPRSPIALEATELPEPRPRQVPRDCGCKPCICTVPEVSSVFIFPPKPKDVLTITLTPKVTCVVVDISKDDPEVQFSWFVDDVEVHTAQTQPREEQFNSTFRSVSELPIMHQDWLNGKEFKCRVNSAAFPAPIEKTISKTKGRPKAPQVYTIPPPKEQMAKDKVSLTCMITDFFPEDITVEWQWNGQPAENYKNTQPIMNTNGSYFVYSKLNVQKSNWEAGNTFTCSVLHEGLHNHHTEKSLSHSPGKSSSPAKDPPIQRLRGAVTRCEDGQLFISSYKNEYQTMEVQNNSVVIKCDGLYIIYLKGSFFQEVKIDLHFREDHNPISIPMLNDGRRIVFTVVASLAFKDKVYLTVNAPDTLCEHLQINDGELIVVQLTPGYCAPEGSYHSTVNQVPL
notes: extracellular domain;domain: hinge-CH2-CH3 Fc domain; Expressed in 293 cells, purified on protein A; multimer when not reduced; also called murine FLT3L-Fc-OX40L
B4: Standard mFlt3L (ligand)
chain: GTPDCYFSHSPISSNFKVKFRELTDHLLKDYPVTVAVNLQDEKHCKALWSLFLAQRWIEQLKTVAGSKMQTLLEDVNTEIHFVTSCTFQPLPECLRFVQTNISHLLKDTCTQLLALKPCIGKACQNFSRCLEVQCQPDSSTLLPPRSPIALEATELPEPRPRQ
notes: also called recombinant mFLT3L protein
B5: recombinant mouse mFLT3 protein (receptor, UniProt Q00342 28-544, looked up)
chain: NQDLPVIKCVLISHENNGSSAGKPSSYRMVRGSPEDLQCTPRRQSEGTVYEAATVEVAESGSITLQVQLATPGDLSCLWVFKHSSLGCQPHFDLQNRGIVSMAILNVTETQAGEYLLHIQSEAANYTVLFTVNVRDTQLYVLRRPYFRKMENQDALLCISEGVPEPTVEWVLCSSHRESCKEEGPAVVRKEEKVLHELFGTDIRCCARNALGRESTKLFTIDLNQAPQSTLPQLFLKVGEPLWIRCKAIHVNHGFGLTWELEDKALEEGSYFEMSTYSTNRTMIRILLAFVSSVGRNDTGYYTCSSSKHPSQSALVTILEKGFINATSSQEEYEIDPYEKFCFSVRFKAYPRIRCTWIFSQASFPCEQRGLEDGYSISKFCDHKNKPGEYIFYAENDDAQFTKMFTLNIRKKPQVLANASASQASCSSDGYPLPSWTWKKCSDKSPNCTEEIPEGVWNKKANRKVFGQWVSSSTLNMSEAGKGLLVKCCAYNSMGTSCETIFLNSPGPFPFIQDNIS
B6: mFLT3L-Fc-GITRL chimeric protein (Fc fusion, murine;mouse (printed as mFc), UniProt P49772 27-189, looked up)
chain: GTPDCYFSHSPISSNFKVKFRELTDHLLKDYPVTVAVNLQDEKHCKALWSLFLAQRWIEQLKTVAGSKMQTLLEDVNTEIHFVTSCTFQPLPECLRFVQTNISHLLKDTCTQLLALKPCIGKACQNFSRCLEVQCQPDSSTLLPPRSPIALEATELPEPRPRQVPRDCGCKPCICTVPEVSSVFIFPPKPKDVLTITLTPKVTCVVVDISKDDPEVQFSWFVDDVEVHTAQTQPREEQFNSTFRSVSELPIMHQDWLNGKEFKCRVNSAAFPAPIEKTISKTKGRPKAPQVYTIPPPKEQMAKDKVSLTCMITDFFPEDITVEWQWNGQPAENYKNTQPIMNTNGSYFVYSKLNVQKSNWEAGNTFTCSVLHEGLHNHHTEKSLSHSPGKTSLKPTAIESCMVKFELSSSKWHMTSPKPHCVNTTSDGKLKILQSGTYLIYGQVIPVDKKYIKDNAPFVVQIYKKNDVLQTLMNDFQILPIGGVYELHAGDNIYLKFNSKDHIQKTNTYWGIILMPDLPFIS
notes: extracellular domain;domain: hinge-CH2-CH3 Fc domain; Expressed in 293 cells, purified on protein A; multimer when not reduced; also called murine FLT3L-Fc-GITRL; mFLT3-Fc-GITRL
B7: recombinant mouse mCD40 protein (receptor, UniProt P27512 20-193, looked up)
chain: LGQCVTCSDKQYLHDGQCCDLCQPGSRLTSHCTALEKTQCHPCDSGEFSAQWNREIRCHQHRHCEPNQGLRVKKEGTAESDTVCTCKEGQHCTSKDCEACAQHTPCIPGFGVMEMATETTDTVCHPCPVGFFSNQSSLFEKCYPWTSCEDKNLEVLQKGTSQTNVICGLKSRMR

For assay [1], the target named is B7. Description: ELISA: plate-bound mCD40 (5ug/ml), detection anti-mCD40L (1:1000) and anti-goat IgG (1:10,000). The source says: (§1) Recombinant mFLT3L protein was used to generate a standard curve. […] A mouse whole IgG was used to generate a standard curve. […] Recombinant mCD40L protein was used to generate a standard curve.
For orientation: In an ELISA, binding on a coated surface is turned into a signal by an enzyme label.

The target of assay [2] is B7. As to the kind of experiment: Dual ELISA: capture anti-FLT3L (R&D AF427), detection with mCD40-His (Acro), tertiary anti-His/HRP (Abcam). Here is the method:
(§2) Capture was performed with an anti-FLT3L antibody, followed by detection of the co-stimulatory domain with a his-tagged recombinant protein, and visualized using an anti-his/HRP antibody.

Assay [3] concerns the target T1, recombinant mouse mOX40 protein. As to the kind of experiment: Dual ELISA: capture anti-FLT3L (R&D AF427), detection with mOX40-His (Acro), tertiary anti-His/HRP (Abcam). The procedure: as §2
Assay [4] addresses T2, anti-mIgG.
T2 construct: capture antibody of the mFc ELISA; also called Capture Ab: anti-mIgG(10ug/ml)
Description: ELISA: plate-bound anti-mIgG (10ug/ml), detection anti-mIgG-HRP (1:1000). The text has this:
Recombinant mFLT3L protein was used to generate a standard curve. […] A mouse whole IgG was used to generate a standard curve. […] Recombinant m4-1BBL protein was used to generate a standard curve.
(§3) Recombinant mFLT3L protein was used to generate a standard curve. […] A mouse whole IgG was used to generate a standard curve. […] Recombinant mOX40L protein was used to generate a standard curve.

The target in assay [5] is T2, anti-mIgG. The assay is described as above.
Excerpt: as §3
This is another data set of the same source.

For assay [6], the target named is B5. As to the kind of experiment: ELISA: plate-bound mFlt3 (10ug/ml), detection goat anti-mFlt3L (1:1000) and anti-goat IgG (10,000).
Excerpt: as §1

The target of assay [7] is B2. Description: Octet biolayer interferometry, loading mFLT3-his, analyte Conc. 142.9 nM, Full R2 0.9654. The text has this: (§4) Octet was used to determine on-/off-rates and binding affinities to the target receptors.
On the technique in general: Biolayer interferometry detects binding as a change in optical thickness at a sensor tip.

Assay [8] has as its target T2, anti-mIgG. As to the kind of experiment: ELISA: plate-bound anti-mIgG (10ug/ml), detection anti-mIgG-HRP (1:1000). The source says: Recombinant mFLT3L protein was used to generate a standard curve. […] A mouse whole IgG was used to generate a standard curve. […] Recombinant mGITRL protein was used to generate a standard curve.
The source holds these as a separate data set.

The target of assay [9] is B2. As to the kind of experiment: Octet biolayer interferometry, loading mCD40-his, analyte Conc. 142.9 nM, Full R2 0.995.
Excerpt: as §4

Consider B1, for which, in assay [1], the “EC50 (read off the curve)” value was around 10 nM.

Consider B2, for which the “EC50 (read off the curve)” value in [2] is around 1 nM.

B3: the “EC50 (read off the curve)” value was around 1 nM in [3], around 20 nM in [4] and around 20 nM in assay [5].

As for B4, in [6], the binding result is “binds”.

In assay [7], B5 gave a Kd of 15.2 nM, a koff of 0.00312 s⁻¹ and a kon of 205000 M⁻¹ s⁻¹.

Regarding B6, the “EC50 (read off the curve)” value in assay [4] and in assay [8] was around 6 nM each time.

On to B7, for which, in assay [9], the dissociation constant Kd was determined as 14.2 nM, the koff came to 0.000858 s⁻¹ and the kon is 61800 M⁻¹ s⁻¹.
